From the Immune Epitope Database (IEDB) come the findings set out here.

Broadly, the Kd is the concentration at which binding is half-saturated. As a reminder, the IC50 is the concentration that gives 50% inhibition. Higher therefore signals lower potency.

The target of experiment [1] is HLA-B*07:02. Briefly: IEDB peptide-MHC binding, purified MHC/competitive/radioactivity; filed as Kd, often an IC50 or EC50 that approximates it; ≥ and ≤ were set here for values at or beyond the usual limits of such assays.
For experiment [2], the target named is HLA-B*54:01. Described as above.
Experiment [3] concerns the target HLA-B*53:01. The experiment is described as above.
For experiment [4], the target named is HLA-B*35:01. The description is as above.
In experiment [5] the target is HLA-B*51:01. Described as above.
Experiment [6] deals with HLA-B*58:01. The experiment is described as above.
The target of experiment [7] is HLA-B*15:03. The experiment is described as above.
Experiment [8] has as its target HLA-A*11:01. Briefly: IEDB peptide-MHC binding, purified MHC/competitive/fluorescence; ≥ and ≤ were set here for values at or beyond the usual limits of such assays.
For experiment [9], the target named is HLA-A*02:01. The description is as above. To be noted: source organism: Sudan ebolavirus.
The target in experiment [10] is HLA-A*24:02. The experiment is described as above. To be noted: source organism: Sudan ebolavirus.
Experiment [11] addresses HLA-A*68:02. Briefly: IEDB peptide-MHC binding, purified MHC/competitive/fluorescence; filed as Kd, often an IC50 or EC50 that approximates it; ≥ and ≤ were set here for values at or beyond the usual limits of such assays. The settings on record: source organism: Yersinia pestis CO92.
The target of experiment [12] is HLA-A*02:06. As to the kind of experiment: IEDB peptide-MHC binding, purified MHC/competitive/radioactivity; filed as Kd, often an IC50 or EC50 that approximates it; ≥ and ≤ were set here for values at or beyond the usual limits of such assays. The settings on record: source organism: Vaccinia virus WR.
For experiment [13], the target named is HLA-A*32:01. The experiment is described as above. The settings on record: source organism: Vaccinia virus Copenhagen.
Experiment [14] has as its target HLA-A*30:01. The description is as above. The settings on record: source organism: Vaccinia virus Copenhagen.
Experiment [15] has as its target HLA-A*02:02. The description is as above. To be noted: source organism: Vaccinia virus WR.
For experiment [16], the target named is HLA-B*08:01. Described as above. To be noted: source organism: Vaccinia virus Copenhagen.
For experiment [17], the target named is HLA-B*15:01. The experiment is described as above.
For experiment [18], the target named is HLA-A*02:03. The experiment is described as above. The settings on record: source organism: Vaccinia virus WR.
Experiment [19] deals with HLA-A*68:02. The experiment is described as above. To be noted: source organism: Vaccinia virus WR.
The target in experiment [20] is HLA-A*02:01. The description is as above. The settings on record: source organism: Vaccinia virus WR.
Experiment [21] has as its target HLA-A*03:01. Briefly: IEDB peptide-MHC binding, purified MHC/competitive/fluorescence; filed as Kd, often an IC50 or EC50 that approximates it; ≥ and ≤ were set here for values at or beyond the usual limits of such assays. The settings on record: source organism: Francisella tularensis subsp. holarctica OSU18.
The mark [22] stands for this setting: source organism: SARS coronavirus Tor2.
[23] abbreviates: source organism: Vaccinia virus WR.
Setting [24] is: source organism: Vaccinia virus Copenhagen.

For KPASRELSV, the Kd in experiment [1] (setting [22]) was found to be 5.7 nM; in [2] (setting [22]), 9540 nM; in experiment [3] (setting [22]) it was 14400 nM; in [4] (setting [22]) it was 11800 nM; in [5] (setting [22]), 631 nM.

As for PPLISILMI, the Kd came to 7300 nM in experiment [1] (setting [23]); 8780 nM in experiment [2] (setting [23]); 818 nM in [3] (setting [23]); 19300 nM in [4] (setting [23]); 91.2 nM in experiment [5] (setting [23]).

For the sequence RAAVEDEEF, the Kd in experiment [6] (source organism: Dengue virus 3 Singapore/8120/1995) is 865 nM.

As to FNVNGSQVY, the Kd in [7] (setting [23]) was found to be 264 nM.

Turning to RQVVDFFKF, the Kd in [7] (setting [23]) turned out to be 0.344 nM.

As to AVVVNPSVK, the IC50 in experiment [8] (source organism: West Nile virus) came out at 2250 nM.

Turning to KHAQRIETW, the equilibrium dissociation constant (Kd) in [6] (source organism: Dengue virus 2 Peru/IQT2913/1996) amounted to 482 nM.

As to ATSYLEYEI, the half-maximal inhibitory concentration (IC50) in experiment [9] is 4960 nM; in [8] (source organism: Sudan ebolavirus), ≥ 81400 nM; in [10], 5080 nM.

Take HPNPKGFCDL: the Kd in experiment [1] (setting [22]) was found to be 968 nM; in experiment [2] (setting [22]), 9770 nM; in [3] (setting [22]) it was 698 nM; in experiment [4] (setting [22]) it was 312 nM; in experiment [5] (setting [22]), 923 nM.

Turning to CPAEIVDTV, the Kd was found to be 893 nM in experiment [1] (setting [22]); 9.99 nM in experiment [2] (setting [22]); 121 nM in experiment [3] (setting [22]); 196 nM in [4] (setting [22]); 1.88 nM in [5] (setting [22]).

As to EDNPGFFRV, the Kd in experiment [11] amounted to 296 nM.

ELAYYNSCM: the dissociation constant (Kd) in experiment [12] is 3580 nM; in experiment [7] (setting [24]), 4140 nM; in experiment [13] it was ≥ 20600 nM; in experiment [14], 1450 nM; in experiment [15], 129 nM; in [16] it was 346 nM. Besides, the equilibrium dissociation constant (Kd) in experiment [17] (setting [24]) came to 594 nM; in experiment [18], 136 nM.

KPVIVPDIKL: the Kd in experiment [1] (setting [23]) is 236 nM; in [2] (setting [23]), 3810 nM; in [3] (setting [23]), 5200 nM; in experiment [4] (setting [23]), 8870 nM; in [5] (setting [23]), ≥ 69600 nM.

Turning to AFEFINSLLK, the Kd in experiment [1] (setting [23]) is ≥ 69600 nM; in experiment [12] it was ≥ 42800 nM; in experiment [19], 11500 nM; in [20] it was 12100 nM; in experiment [2] (setting [23]) it was ≥ 69900 nM; in experiment [15], 5480 nM. In addition, the Kd in experiment [3] (setting [23]) is ≥ 69900 nM; in experiment [4] (setting [23]), ≥ 69900 nM; in experiment [18], ≥ 20600 nM; in experiment [5] (setting [23]), ≥ 69600 nM.

FPCSICLSGL: the Kd in [1] (setting [22]) was determined as 58.5 nM; in experiment [2] (setting [22]), 65.2 nM; in experiment [3] (setting [22]) it was 300 nM; in experiment [4] (setting [22]), 123 nM; in experiment [5] (setting [22]), 35 nM.

As to SSVSPPNVL, the Kd in experiment [7] (setting [23]) amounted to 18.3 nM.

As to KTYYHHTGY, the Kd in experiment [21] was found to be 5.2 nM.

As to QLYSTLLSF, the results for the Kd in experiment [7] (setting [23]) and in experiment [17] (setting [23]) were 0.565 nM and 3 nM, respectively.

ILHVDILSF: the equilibrium dissociation constant (Kd) in experiment [7] (setting [23]) was 23.8 nM.

Take RPRVTKQYIV: the Kd was determined as 4.55 nM in experiment [1] (setting [23]); 106 nM in [2] (setting [23]); 4450 nM in [3] (setting [23]); 11500 nM in [4] (setting [23]); 14900 nM in experiment [5] (setting [23]).
